This sample holds only a part of the variants without activity.
What was measured:
biotinyl-Phe-oxazolone = experiment: self-aminoacylation, catalytic enhancement (BFO) (fold over background); higher = more active; k-Seq, kA / k0A0; sequences stand for … in GGGAAUGGAUCCACAUCUACGAAUUC…UUCACUGCAGACUUGACGAAGCUG
Outline: (§1)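 Catalytic enhancement equals the median kA over the uncatalyzed rate, the latter read from the low-activity peak of a bimodal Gaussian fit. Values of kA came from fitting each sequence's fraction reacted to a pseudo-first-order model, with 1000 bootstraps. Reacted RNA was captured with streptavidin and quantified by triplicate qPCR and Illumina sequencing after 90 minutes at room temperature with 2–1250 μM biotinyl-aminoacyl-oxazolone and 0.43 μM mutagenized RNA pools bearing a 21-nt variable region.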

biotinyl-Ile-oxazolone = experiment: self-aminoacylation, catalytic enhancement (BIO) (fold over background); higher = more active; k-Seq, kA / k0A0; sequences stand for … in GGGAAUGGAUCCACAUCUACGAAUUC…UUCACUGCAGACUUGACGAAGCUG
Outline: as §1

biotinyl-Met-oxazolone = experiment: self-aminoacylation, catalytic enhancement (BMO) (fold over background); higher = more active; k-Seq, kA / k0A0; sequences stand for … in GGGAAUGGAUCCACAUCUACGAAUUC…UUCACUGCAGACUUGACGAAGCUG
Outline: as §1

biotinyl-Val-oxazolone = experiment: self-aminoacylation, catalytic enhancement (BVO) (fold over background); higher = more active; k-Seq, kA / k0A0; sequences stand for … in GGGAAUGGAUCCACAUCUACGAAUUC…UUCACUGCAGACUUGACGAAGCUG
Outline: as §1

biotinyl-Leu-oxazolone = experiment: self-aminoacylation, catalytic enhancement (BLO) (fold over background); higher = more active; k-Seq, kA / k0A0; sequences stand for … in GGGAAUGGAUCCACAUCUACGAAUUC…UUCACUGCAGACUUGACGAAGCUG
Outline: as §1

biotinyl-Trp-oxazolone = experiment: self-aminoacylation, catalytic enhancement (BWO) (fold over background); higher = more active; k-Seq, kA / k0A0; sequences stand for … in GGGAAUGGAUCCACAUCUACGAAUUC…UUCACUGCAGACUUGACGAAGCUG
Outline: as §1

| Sequence | self-aminoacylation (biotinyl-Phe-oxazolone) | self-aminoacylation (biotinyl-Ile-oxazolone) | self-aminoacylation (biotinyl-Met-oxazolone) | self-aminoacylation (biotinyl-Val-oxazolone) | self-aminoacylation (biotinyl-Leu-oxazolone) | self-aminoacylation (biotinyl-Trp-oxazolone) |
| --- | --- | --- | --- | --- | --- | --- |
| AUUACCCUGGGCAACGAGUGA [Fam2.1 aminoacylation ribozyme variant] | 57.4 | 3.81 | 7.64 | 4 | 10.3 | 10.3 |
| AUUACCCUGGGCAUCAAGUGA [Fam2.1 aminoacylation ribozyme variant] | 2.16 | 1.16 | 1.76 | 1.37 | 1.73 | 1.64 |
| AUUACCCUGGGCAUGGAGUGA [Fam2.1 aminoacylation ribozyme variant] | 40.7 | 3.35 | 7.29 | 3.13 | 8.39 | 8.01 |
| AUUACCCUGGGCCUCGAGUGA [Fam2.1 aminoacylation ribozyme variant] | 22.6 | 2.41 | 3.15 | 2.61 | 3.74 | 4.65 |
| AUUACCCUGGUAACCGAGUGA [Fam2.1 aminoacylation ribozyme variant] | 96.5 | 5.22 | 12.5 | 5.58 | 12.2 | 14.2 |
| AUUACCCUGGUAAUCAAGUGA [Fam2.1 aminoacylation ribozyme variant] | 16.1 | 1.71 | 3.27 | 1.73 | 3.14 | 3.48 |
| AUUACCCUGGUAAUCGAGAGA [Fam2.1 aminoacylation ribozyme variant] | 0.58 | 1.02 | 0.722 | 0.78 | 0.723 | 0.573 |
| AUUACCCUGGUAAUCGAGUGU [Fam2.1 aminoacylation ribozyme variant] | 19.2 | 2.17 | 5.16 | 2.22 | 5.04 | 4.99 |
| AUUACCCUGGUAAUCUAGUGA [Fam2.1 aminoacylation ribozyme variant] | 86.4 | 5.57 | 13 | 5.92 | 12.4 | 15.9 |
| AUUACCCUGGUAAUGGAGUGA [Fam2.1 aminoacylation ribozyme variant] | 55.9 | 3.32 | 8.43 | 3.73 | 8.53 | 9.08 |
| AUUACCCUGGUCAACGACUGA [Fam2.1 aminoacylation ribozyme variant] | 0.635 | 0.653 | 0.47 | 0.66 | 0.523 | 0.514 |
| AUUACCCUGGUCAACGAGUGA [Fam2.1 aminoacylation ribozyme variant] | 22.4 | 3.43 | 6.11 | 3.6 | 5.99 | 7.31 |
| AUUACCCUGGUCAACGAGUGC [Fam2.1 aminoacylation ribozyme variant] | 0.478 | 0.908 | 0.848 | 0.903 | 1.01 | 0.892 |
| AUUACCCUGGUCAACGCGUGA [Fam2.1 aminoacylation ribozyme variant] | 72.1 | 4.65 | 10.8 | 6.15 | 12.5 | 12.3 |
| AUUACCCUGGUCAACGGGUGA [Fam2.1 aminoacylation ribozyme variant] | 46.6 | 4.83 | 9.43 | 4.61 | 9.68 | 10.8 |
| AUUACCCUGGUCAACUAGUGA [Fam2.1 aminoacylation ribozyme variant] | 24.9 | 3.93 | 8.64 | 4.39 | 6.83 | 9.81 |
| AUUACCCUGGUCACCGAGUCA [Fam2.1 aminoacylation ribozyme variant] | 0.799 | 1.43 | 1.45 | 1.49 | 1.75 | 1.84 |
| AUUACCCUGGUCACCGAGUGC [Fam2.1 aminoacylation ribozyme variant] | 3.95 | 1.76 | 1.43 | 1.45 | 2.61 | 2.11 |
| AUUACCCUGGUCACCGGGUGA [Fam2.1 aminoacylation ribozyme variant] | 87.4 | 6.24 | 14.5 | 7.91 | 14.8 | 14.1 |
| AUUACCCUGGUCACGGAGUGA [Fam2.1 aminoacylation ribozyme variant] | 37.5 | 3.43 | 7.34 | 3.92 | 7.68 | 8.54 |
| AUUACCCUGGUCAGAGAGUGA [Fam2.1 aminoacylation ribozyme variant] | 19.9 | 3.18 | 7.04 | 3.41 | 6.71 | 8.25 |
| AUUACCCUGGUCAGCGACUGA [Fam2.1 aminoacylation ribozyme variant] | 1.03 | 1.12 | 1.3 | 1.31 | 1.05 | 1.94 |
| AUUACCCUGGUCAGCGCGUGA [Fam2.1 aminoacylation ribozyme variant] | 35.3 | 3.45 | 5.84 | 3.95 | 6.5 | 6.87 |
| AUUACCCUGGUCAUAGAGCGA [Fam2.1 aminoacylation ribozyme variant] | 1.37 | 1.05 | 1.03 | 1.04 | 1.04 | 1.18 |
| AUUACCCUGGUCAUAGAGUCA [Fam2.1 aminoacylation ribozyme variant] | 0.531 | 0.884 | 0.82 | 0.974 | 0.962 | 0.529 |
| AUUACCCUGGUCAUAGAGUGG [Fam2.1 aminoacylation ribozyme variant] | 3.37 | 1.37 | 2.18 | 1.43 | 2.31 | 1.18 |

| Sequence | self-aminoacylation (biotinyl-Phe-oxazolone) | self-aminoacylation (biotinyl-Ile-oxazolone) | self-aminoacylation (biotinyl-Met-oxazolone) | self-aminoacylation (biotinyl-Val-oxazolone) | self-aminoacylation (biotinyl-Leu-oxazolone) | self-aminoacylation (biotinyl-Trp-oxazolone) |
| --- | --- | --- | --- | --- | --- | --- |
| AUUACCCUGGUCAUAUAGUGA [Fam2.1 aminoacylation ribozyme variant] | 69.1 | 5.04 | 11.2 | 5.51 | 10.7 | 12.4 |
| AUUACCCUGGUCAUCCAAUGA [Fam2.1 aminoacylation ribozyme variant] | 1.66 | 0.938 | 1.2 | 0.942 | 1.47 | 0.429 |
| AUUACCCUGGUCAUCCAGGGA [Fam2.1 aminoacylation ribozyme variant] | 7.32 | 1.91 | 2.82 | 1.67 | 1.84 | 2.26 |
| AUUACCCUGGUCAUCGAGAUA [Fam2.1 aminoacylation ribozyme variant] | 7.71 | 1.78 | 3.42 | 2.2 | 3.19 | 3.19 |
| AUUACCCUGGUCAUCGAGUAC [Fam2.1 aminoacylation ribozyme variant] | 17.2 | 2.32 | 6.05 | 3.03 | 5.94 | 4.57 |
| AUUACCCUGGUCAUCGAGUAU [Fam2.1 aminoacylation ribozyme variant] | 97.7 | 8 | 26.9 | 9.24 | 23.6 | 24.4 |
| AUUACCCUGGUCAUCGAGUGA [Fam2.1 aminoacylation ribozyme variant] | 657 | 34.6 | 91.3 | 37.9 | 86.9 | 99.1 |
| AUUACCCUGGUCAUCGAGUGC [Fam2.1 aminoacylation ribozyme variant] | 24.9 | 3.92 | 11.4 | 4.71 | 10.9 | 8.98 |
| AUUACCCUGGUCAUCGAGUGG [Fam2.1 aminoacylation ribozyme variant] | 361 | 16.3 | 56.9 | 18.5 | 55.4 | 52.1 |
| AUUACCCUGGUCAUCGAGUUC [Fam2.1 aminoacylation ribozyme variant] | 4.38 | 1.02 | 1.88 | 1.53 | 2.17 | 1.54 |
| AUUACCCUGGUCAUCGAGUUU [Fam2.1 aminoacylation ribozyme variant] | 14.8 | 3.52 | 7.8 | 4.61 | 7.87 | 6.31 |
| AUUACCCUGGUCAUCGAUAGA [Fam2.1 aminoacylation ribozyme variant] | 0.5 | 0.721 | 0.638 | 0.77 | 0.537 | 1.23 |
| AUUACCCUGGUCAUCGCGAGA [Fam2.1 aminoacylation ribozyme variant] | 1.58 | 2.17 | 1.68 | 2.21 | 1.44 | 2.72 |
| AUUACCCUGGUCAUCGCGCGA [Fam2.1 aminoacylation ribozyme variant] | 36.7 | 5.07 | 4.45 | 5.24 | 6.23 | 3.18 |
| AUUACCCUGGUCAUCGCGUGC [Fam2.1 aminoacylation ribozyme variant] | 16.8 | 2.81 | 3.35 | 2.75 | 4.64 | 4.47 |
| AUUACCCUGGUCAUCGGCUGA [Fam2.1 aminoacylation ribozyme variant] | 4.87 | 2.74 | 1.54 | 3.04 | 2.77 | 2.77 |
| AUUACCCUGGUCAUCGGGUAA [Fam2.1 aminoacylation ribozyme variant] | 208 | 11.4 | 35.6 | 16 | 38.2 | 42.4 |
| AUUACCCUGGUCAUCGGGUGC [Fam2.1 aminoacylation ribozyme variant] | 211 | 13.4 | 39.2 | 18.9 | 52.5 | 48.7 |
| AUUACCCUGGUCAUCGUCUGA [Fam2.1 aminoacylation ribozyme variant] | 0.374 | 0.88 | 0.842 | 0.817 | 0.907 | 0.531 |
| AUUACCCUGGUCAUCUAGUCA [Fam2.1 aminoacylation ribozyme variant] | 0.712 | 0.753 | 0.578 | 0.827 | 0.616 | 0.455 |
| AUUACCCUGGUCAUCUAGUGA [Fam2.1 aminoacylation ribozyme variant] | 42.9 | 4.51 | 9.61 | 4.83 | 9.15 | 11.3 |
| AUUACCCUGGUCAUCUUGUGA [Fam2.1 aminoacylation ribozyme variant] | 22.6 | 2.27 | 4.75 | 2.33 | 4.41 | 4.57 |
| AUUACCCUGGUCAUGAAGUGA [Fam2.1 aminoacylation ribozyme variant] | 44.8 | 4.14 | 8.83 | 4.08 | 7.74 | 10.1 |
| AUUACCCUGGUCAUGGAAUGA [Fam2.1 aminoacylation ribozyme variant] | 1.95 | 1.19 | 1.53 | 1.21 | 1.17 | 2.08 |
| AUUACCCUGGUCAUGGAGAGA [Fam2.1 aminoacylation ribozyme variant] | 1.19 | 0.877 | 0.941 | 1.18 | 1.2 | 1.77 |
